The values that follow come from patent US20160039883A1 (AstraZeneca / MedImmune, published 2016).

Test [1] addresses RSV fusion (F) protein on RSV virus (respiratory syncytial virus, UniProt P03420 26-574). The test is described as follows: cell-based or functional assay.
In test [2] the target is VLP059. The test is described as follows: ELISA, VLP-coated wells, 0.5 µg/ml palivizumab, OD relative to sF-coated wells. In general terms: ELISA stands for enzyme-linked immunosorbent assay.
The target of test [3] is VLP097. The test is described as above.
The target of test [4] is VLP098. Described as above.
Test [5] deals with VLP099. The test is described as above.
Test [6] deals with VLP019. Described as above.

B1: palivizumab (antibody, V domains shown)
VH: QVTLRESGPALVKPTQTLTLTCTFSGFSLSTSGMSVGWIRQPPGKALEWLADIWWDDKKDYNPSLKSRLTISKDTSKNQVVLKVTNMDPADTATYYCARSMITNWYFDVWGAGTTVTVSS
VL: DIQMTQSPSTLSASVGDRVTITCKCQLSVGYMHWYQQKPGKAPKLLIYDTSKLASGVPSRFSGSGSGTEFTLTISSLQPDDFATYYCFQGSGYPFTFGGGTKLEIK
With B1, the “PRNT as measured by the IC50 point” value in test [1] was ~0.5 µg/mL. The “Palivizumab binding in vitro (sF = 100%)” value in test [2] turned out to be 83%; in test [3] it was 112%; in test [4], 47%; in test [5], 95%; in test [6] it was 100%.
